For four molecules, Kd, koff and kon results are on record in publication PMC12319226 (Frontiers in Bioinformatics, 2025).

T1: fHbp m002336 (Neisseria meningitidis fHbp v3.28, …, chimera)
T1 chain: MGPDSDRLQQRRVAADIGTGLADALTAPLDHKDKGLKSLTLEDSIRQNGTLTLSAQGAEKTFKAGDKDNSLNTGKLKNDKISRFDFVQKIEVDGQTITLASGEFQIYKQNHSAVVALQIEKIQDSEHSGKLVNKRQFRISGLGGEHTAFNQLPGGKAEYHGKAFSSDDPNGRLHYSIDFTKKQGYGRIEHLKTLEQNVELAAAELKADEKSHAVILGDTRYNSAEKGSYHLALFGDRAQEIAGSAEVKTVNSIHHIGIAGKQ

T2: fHbp m001659 (Neisseria meningitidis, fHbp …, point mutant)
T2 chain: T1 chain with Y221L, S223G, T249S, N251E

T3: fHbp m002421 (Neisseria meningitidis, designed fHbp …, point mutant)
T3 chain: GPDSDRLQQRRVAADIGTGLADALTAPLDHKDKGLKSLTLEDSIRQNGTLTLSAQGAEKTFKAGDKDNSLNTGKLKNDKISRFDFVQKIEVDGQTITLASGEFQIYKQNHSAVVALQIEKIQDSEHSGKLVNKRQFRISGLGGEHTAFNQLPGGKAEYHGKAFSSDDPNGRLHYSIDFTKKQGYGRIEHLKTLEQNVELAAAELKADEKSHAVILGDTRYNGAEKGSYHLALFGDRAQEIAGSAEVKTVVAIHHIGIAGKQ

T4: fHbp m001929 (Neisseria meningitidis; fHbp …, chimera)
T4 chain: T1 chain with N222G, S223G, N251E, S252A

T5: fHbp m002332 (Neisseria meningitidis; fHbp …, chimera)
T5 chain: T1 chain with N251E, S252G

T6: fHbp m001932 (Neisseria meningitidis; fHbp …, chimera)
T6 chain: T1 chain with N222G, S223G, S252A

T7: fHbp m002252 (Neisseria meningitidis; fHbp …, chimera)
T7 chain: T1 chain with S223Q, N251E

T8: fHbp m002389 (Neisseria meningitidis; fHbp …, chimera)
T8 chain: T1 chain with S223G, T249S, S252G

T9: fHbp m002420 (Neisseria meningitidis, designed fHbp …, chimera)
T9 chain: T3 chain with A251S

B1: mAb 1E6 (human) (antibody, V domains shown)
VH: EVQLVQSGAEVKKPGSSVKVSCKASGGTVIDYPITWVRQAPGQGLEWVGGFVPLFRTSNYGQKFQGRVTITADKSTSTASMELNSLTSEDTAIYYCARGDTAMGPFDYWGQGTLVTVSS
VL: SYVLTQPPSLSVAPGKTATLTCGGNNIAGKTVHWYQQRPGQAPVLVISYDSDRPSGIPERFSGSNSANTATLTISRVEAGDEADYYCQVWDRNSDHWVFGGGTKLTVL
notes: source: Expi293, purified (MabSelect SuRe, SEC); copies: 2 + 2
B2: chimeric antibody h12C1 (antibody, V domains shown)
VH: QVQLQESGPELVKPGASVKISCKASGYSFSDYNMSWVKQSNGKSLEWIGIIDPKYGTINYNQKFKGKATLTVDQASSTAYMQLNSLTSEDSAVYYCVRDYYGSSYFDYWGQGTTLTVSS
VL: DIVLTQSPSSIYASLGERVTLTCKASQDIHNYLNWFQQKPGKSPKTLIYRANRLVDGVPSRFSGGGSGQDYSLTISSLEFEDIGIYYCLQYDEFPPTFGGGTRLEIK
notes: also called humanized 12C1; source: Expi293, purified (MabSelect SuRe, SEC); copies: 2 + 2
B3: chimeric antibody hJAR5 (antibody, V domains shown)
VH: QVQMQQPGAELVKPGASVKLSCKASGYTFISYWMHWVKQRPGRGLEWIGRIAPDTGIIYYNEKFKNKATLTVDTPSSTAYMQLNSLTSEDSAVYYCARYLKYDGSTYRFDYWGQGTTLTVSS
VL: DIVMTQAAPSVPVTPGESVSISCRSSKSLLHSNGNTYLFWFLQRPGQSPQLLIYRMSNLASGVPDRFSGSGSGTSFTLRISRVEAEDVGVYYCMQHLEYPYTFGGGTKLEIK
notes: also called hJAR5-2; humanized JAR5; source: Expi293, purified (MabSelect SuRe, SEC); copies: 2 + 2
B4: mAb 4B3 (human) (antibody, V domains shown)
VH: QVQLVQSGGGLVKPGGSLRLSCAASGFPFSSYYMSWIRQAPGKGLEWVSDINNSGNVKEYADFVKGRLTISRDNVKNSMYLHMNSLRVEDTAVYYCARNRGRFDVWGQGTLVTVSA
VL: EIVMTQSPGTLSLSPGETATLSCRASQMISSPFLAWYQQRRGQAPRLLIYGASTRATDTPDRFRGSGSGTDFILTISRLEPEDFAVYYCQYYDDSPFTFGQGTKLEIK
notes: also called 4B3-2; source: Expi293, purified (MabSelect SuRe, SEC); copies: 2 + 2

Numbering of substitutions follows the chain as printed. Values joined by “and” are separate entries in the source; they are usually repeats but may differ in a detail not shown here. Equal values may be shown once.

One experiment has as its target T1, fHbp m002336. In words: BLI. Conditions: both partners purified.
Take B1: the Kd (in general, the constant that tells how readily two partners part at equilibrium) was less than 0.001 nM; the off-rate (koff) (usually a measure of how fast the partners let go of each other) was less than 1e-07 s⁻¹; the kon (usually the second-order rate constant of association) worked out at 676300 ± 4120 M⁻¹ s⁻¹.

On to B2, for which binding was characterised by a dissociation constant (Kd) of 47.1 nM, the koff worked out at 0.01231 ± 0.000116 s⁻¹ and the kon was 261000 ± 9540 M⁻¹ s⁻¹.

In a further experiment the target is T2, fHbp m001659. In words: BLI. Conditions: both partners purified.
The molecule B1 had a Kd of 0.716 nM, a koff of 0.000306 s⁻¹ and a kon of 427300 ± 1410 M⁻¹ s⁻¹.

Regarding B2, the Kd is 1.75 nM, the koff was determined as 0.000578 s⁻¹ and the kon was 330000 ± 3440 M⁻¹ s⁻¹.

Another experiment concerns the target T3, fHbp m002421. Description: BLI. Conditions: both partners purified.
B3: the Kd stood at 0.193 nM.

Regarding B1, the Kd stood at 0.131 nM, the koff amounted to 5.56e-05 s⁻¹ and the kon was 424400 ± 3050 M⁻¹ s⁻¹.

Turning to B4, binding was put at a Kd of 1.25 nM, the koff came out at 0.00101 s⁻¹ and the kon turned out to be 803900 ± 3510 M⁻¹ s⁻¹.

B2: the affinity, expressed as Kd, was 33.8 nM; the koff amounted to 0.00845 s⁻¹; the on-rate constant (kon) was determined as 250000 ± 2560 M⁻¹ s⁻¹.

A further experiment concerns the target T4, fHbp m001929. In words: BLI. The conditions noted are these: both partners purified.
B3 came in with a Kd of 0.347 nM.

In turn, B1 came in with a Kd of 0.235 nM, a koff of 9.11e-05 s⁻¹ and a kon of 387500 ± 2190 M⁻¹ s⁻¹.

Turning to B4, the Kd came to 2.63 nM, the koff stood at 0.000635 s⁻¹ and the kon amounted to 242000 ± 2590 M⁻¹ s⁻¹.

B2 returned a Kd of 45.9 nM, a koff of 0.00802 s⁻¹ and a kon of 175000 ± 4560 M⁻¹ s⁻¹.

Another experiment concerns the target T5, fHbp m002332. In words: BLI. Conditions: both partners purified.
B3 came in with a Kd of 0.662 nM.

For B1, binding was put at a Kd of 0.708 nM, the koff came to 0.000264 s⁻¹ and the kon stood at 373200 ± 1990 M⁻¹ s⁻¹.

For B4, the affinity, expressed as Kd, was 4.04 nM; the dissociation rate constant (koff) is 0.00118 s⁻¹; the kon is 291800 ± 1150 M⁻¹ s⁻¹.

In turn, B2 returned a Kd of 1.19 nM, a koff of 0.000253 s⁻¹ and a kon of 212700 ± 1530 M⁻¹ s⁻¹.

The target of another experiment is T6, fHbp m001932. In words: BLI. Conditions: both partners purified.
Molecule B3 registered a Kd of 3.73 nM.

B1 yielded a Kd of 0.303 nM, a koff of 0.000105 s⁻¹ and a kon of 347000 ± 1890 M⁻¹ s⁻¹.

The molecule B4 had a Kd of 0.814 nM, a koff of 0.000321 s⁻¹ and a kon of 394600 ± 1740 M⁻¹ s⁻¹.

B2 registered a Kd of 35.2 nM, a koff of 0.0057 s⁻¹ and a kon of 161900 ± 1160 M⁻¹ s⁻¹.

The target in the next experiment is T7, fHbp m002252. Description: BLI. The conditions noted are these: both partners purified.
On to B3, for which binding was characterised by a dissociation constant (Kd) of 5.07 nM.

Take B1: binding was put at a Kd of 0.133 nM, the koff was determined as 4.06e-05 s⁻¹ and the kon turned out to be 304600 ± 2710 M⁻¹ s⁻¹.

With B4, the Kd came out at 1.27 nM, the koff came out at 0.000415 s⁻¹ and the kon stood at 327400 ± 2090 M⁻¹ s⁻¹.

Molecule B2 showed a Kd of 0.269 nM, an off-rate constant (koff) of 4.04e-05 s⁻¹ and a kon of 150400 ± 1270 M⁻¹ s⁻¹.

The target of the next experiment is T8, fHbp m002389. In words: BLI. Conditions: both partners purified.
On to B3, for which the Kd turned out to be 0.772 nM.

For B1, the affinity, expressed as Kd, was 0.818 nM; the koff was 0.000272 s⁻¹; the kon stood at 332200 ± 1430 M⁻¹ s⁻¹.

On to B4, for which the Kd was 4.01 nM and 3.22 nM; the koff is 0.000912 s⁻¹ and 0.00101 s⁻¹; the kon was 227000 M⁻¹ s⁻¹ and 315000 M⁻¹ s⁻¹.

B2 had a Kd of 1.16 nM, a koff of 0.000257 s⁻¹ and a kon of 220700 ± 1060 M⁻¹ s⁻¹.

A further experiment deals with T9, fHbp m002420. Description: BLI. The conditions noted are these: both partners purified.
Molecule B3 had a Kd of 0.256 nM.

On to B1, for which the affinity, expressed as Kd, was 0.285 nM; the koff is 0.000154 s⁻¹; the on-rate constant (kon) is 542300 ± 2290 M⁻¹ s⁻¹.

In turn, B4 gave a Kd of 2.01 nM, a koff of 0.000887 s⁻¹ and an on-rate (kon) of 441000 ± 4480 M⁻¹ s⁻¹.

Consider B2, for which the Kd stood at 70.4 nM, the koff amounted to 0.02143 ± 0.00013 s⁻¹ and the kon is 304000 ± 6160 M⁻¹ s⁻¹.
